{
  "source": "patent US20110038856A1",
  "about": "“METHODS OF TREATING NEOPLASTIC, AUTOIMMUNE AND INFLAMMATORY DISEASES” (Seattle Genetics, Inc., priority 2006, published 2011)",
  "key": {"[1]": {"test_system": "HEL 92.1.7 cells", "assay": "Complement-dependent cytotoxicity (CDC) on MDR+ CD33-positive AML cell line", "format": "cell-based, human", "details": "HEL 92.1.7 cells; FIG. 4", "method": "The purpose of this study was to determine whether the cytotoxic effects of an anti-CD33 antibody (HuM195) on AML cells could be enhanced by combination treatment with chemotherapeutic drugs. An MDR^+, CD33-positive AML cell line (HEL 92.1.7) was either untreated or preincubated with the indicated concentrations of thalidomide or 5-azacytidine for two hours prior to exposure to the anti-CD33 Ab. Cytotoxic activity was measured using a complement-dependent cytotoxicity (CDC) activity."}, "[2]": {"test_system": "primary human macrophages", "quoted_text": "(§1) Macrophages were harvested, counted, and cultured in 96-well plates at 35,000 cells per well. G-CSF-mobilized CD14^+ monocytes (Cambrex) were cultured in 96-well plates at 100,000 cells per well (adherent cells) in sterile polypropylene dishes (non-adherent cells)."}, "[3]": {"test_system": "primary human CD14+ monocytes", "quoted_text": "as §1"}, "[4]": {"molecular_target": "CD33 (Homo sapiens, UniProt P20138)", "sequence (P20138 18-364)": "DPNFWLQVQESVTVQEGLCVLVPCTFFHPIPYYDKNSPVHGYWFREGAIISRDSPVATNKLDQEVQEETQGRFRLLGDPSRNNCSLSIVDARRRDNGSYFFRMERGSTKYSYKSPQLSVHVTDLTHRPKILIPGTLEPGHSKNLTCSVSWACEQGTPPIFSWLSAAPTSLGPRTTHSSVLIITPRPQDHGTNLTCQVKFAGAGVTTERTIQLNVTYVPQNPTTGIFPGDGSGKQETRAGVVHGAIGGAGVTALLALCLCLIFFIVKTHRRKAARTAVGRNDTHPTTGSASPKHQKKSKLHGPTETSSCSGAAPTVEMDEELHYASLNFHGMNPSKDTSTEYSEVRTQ", "assay": "SGN-33 signaling in HL-60 cells, primary human monocytes and macrophages (CD33 immunoprecipitation, Western blot)", "format": "cell-based", "parameters": "endogenous in cells; host or cells: HL-60 (ATCC); primary human CD14+ monocytes (Cambrex); macrophages derived from human PBMCs", "method": "Deglycosylation was confirmed by CE-SDS. […] Cell lysates were prepared and CD33 immunoprecipitated using an anti-CD33 rabbit polyclonal antibody (Santa Cruz Biotechnology, Santa Cruz, Calif.) prior to SDS PAGE gel electrophoresis. Western blot analyses of these samples were performed using the 4G10 phosphotyrosine antibody (Upstate Biotechnology, Temucula, Calif.), anti-CD33 antibody (NovoCastra, Norwell, Mass.), and anti-SHP-1 antibody (Calbiochem, San Diego, Calif.). Control lysate for SHP-1 was prepared from a B cell lymphoma cell line."}, "[5]": {"details": "HL-60 AML cells and primary human monocytes or macrophages, soluble SGN-33, 30 minutes, FIG. 15"}},
  "data": [
    {"substance": "SGN-33: anti-CD33 antibody, a humanized version of mouse monoclonal antibody M195", "values": [
      {"measurement": "lysis of AML cells (CDC activity)", "setting": "[1]", "value": "increased lysis of AML cell lines in a dose-dependent manner"},
      {"measurement": "cell viability", "setting": "[2]", "value": "without interfering with cell viability"},
      {"measurement": "cell viability", "setting": "[3]", "value": "not due to an adverse effect"},
      {"measurement": "phosphorylation of CD33", "setting": "[4]; [5]", "value": "resulted in phosphorylation of CD33"},
      {"measurement": "recruitment of SHP-1", "setting": "[4]; [5]", "value": "recruitment of SHP-1"},
      {"measurement": "recruitment of SHP-1 to the CD33 complex", "setting": "[4]; HL-60 and monocytes, 30 minutes, FIG. 16", "value": "resulted in recruitment of SHP-1"},
      {"measurement": "time to phosphorylation of CD33 and recruitment of SHP-1", "setting": "[4]; HL-60 cells, 3 μg/ml soluble SGN-33, FIG. 17", "value": "≤ 5", "unit": "min"},
      {"measurement": "strength of the phosphorylation response (signal on western blot)", "setting": "[4]; primary monocytes compared to HL-60 or primary macrophages, opposite for SHP-1 signal, FIG. 15", "value": "appeared to be stronger in primary monocytes"}
    ]}
  ]
}
